Data taken from article PMC10893636, “Synergistic enhancement of the mouse Pramex1 and Pramel1 in repressing retinoic acid (RA) signaling during gametogenesis” (Cell & Bioscience, 2024).

B1: Retinoic acid receptor alpha (RARα) (natural protein, mouse (endogenous in testis), UniProt P11416 1-462, looked up)
chain: MASNSSSCPTPGGGHLNGYPVPPYAFFFPPMLGGLSPPGALTSLQHQLPVSGYSTPSPATIETQSSSSEEIVPSPPSPPPLPRIYKPCFVCQDKSSGYHYGVSACEGCKGFFRRSIQKNMVYTCHRDKNCIINKVTRNRCQYCRLQKCFDVGMSKESVRNDRNKKKKEAPKPECSESYTLTPEVGELIEKVRKAHQETFPALCQLGKYTTNNSSEQRVSLDIDLWDKFSELSTKCIIKTVEFAKQLPGFTTLTIADQITLLKAACLDILILRICTRYTPEQDTMTFSDGLTLNRTQMHNAGFGPLTDLVFAFANQLLPLEMDDAETGLLSAICLICGDRQDLEQPDKVDMLQEPLLEALKVYVRKRRPSRPHMFPKMLMKITDLRSISAKGAERVITLKMEIPGSMPPLIQEMLENSEGLDTLSGQSGGGTRDGGGLAPPPGSCSPSLSPSSHRSSPATQSP
notes: Retinoic acid receptor alpha, mouse, endogenous in testis; band of 52 kDa; Endogenous protein of C57BL/6 mouse testis; source: endogenous, mouse P7 testis protein extract
B2: PRAMEX1 (Prame like, X-linked 1) (natural protein, mouse (endogenous in testis), UniProt F7ADI6 1-462, looked up)
chain: MDERDPSSLLDLAIQSLLSNELVAIHSLGEIPRELFVPLFSAAFTGGYRKILTSMVKIWPFTCLHIGTLSVQEPQRELLKAMVESLQFLPAQDCSSGGPKLRILDVRQGVDCKTTCPDFGARSPTCFHGCTHSVHSILKLESQYSIVDLKPESQSAIQPMELLVDLSLDGTLREREFFALLLNKVQQSSGSLHLCCRDLQIDRFSYAKNALKFLDLTCIQNLTVDQASLSEVTTLLARMIYLDSLSLSKITYRSLHGKVFRVFLNYLGRMNCLKELNLSSFSLTDHLDSLLRALPPNLDFLYLPFCEISYRDLKFLSQSAQATHLKLLNLSNNPMYWDDCGPFQTLLQKLSDTLQHLAINHCHLTDAILSAILPALSKCSHLRVISFVSNPISMPMLLKILHYLTPLMELKYVIYPIPIHCYEQWQFHGRLDRQKLTDVQAQLKAMLQAAKRSDMNWITYSQ
notes: PRAMEX1 (Prame like, X-linked 1), mouse, endogenous in testis; band of about 56 kDa; Endogenous protein of C57BL/6 mouse testis; no recombinant construct; source: endogenous, mouse P7 testis protein extract

What was measured:
[1] = biological target: B2; assay: co-IP; anti-PRAMEX1 or anti-RARα antibody immobilised on protein A/G magnetic beads (Pierce Crosslink Magnetic IP/co-IP Kit); P7 testis proteins of WT, Pramex1 sKO and Pramel1 sKO mice, overnight at 4 °C; Western blot, band intensity relative to input (set as 1), n = 3; settings: partners not purified
[2] = biological target: B1; assay: as above; settings: partners not purified

| Binder | band intensity in the PRAMEX1 precipitation relative to input, Pramel1 sKO testis [1] [fold] | band intensity in the PRAMEX1 precipitation relative to input, WT testis [1] [fold] | band intensity in the RARα co-IP relative to input, Pramel1 sKO testis [2] [fold] | band intensity in the RARα co-IP relative to input, WT testis [2] [fold] |
| --- | --- | --- | --- | --- |
| B1 | 2.48 | 1.5 | – | – |
| B2 | – | – | 3.32 | 1.3 |
